This test addresses T1, tGFP-tagged mCLDN5 (mouse, UniProt O54942 1-218).
T1 sequence: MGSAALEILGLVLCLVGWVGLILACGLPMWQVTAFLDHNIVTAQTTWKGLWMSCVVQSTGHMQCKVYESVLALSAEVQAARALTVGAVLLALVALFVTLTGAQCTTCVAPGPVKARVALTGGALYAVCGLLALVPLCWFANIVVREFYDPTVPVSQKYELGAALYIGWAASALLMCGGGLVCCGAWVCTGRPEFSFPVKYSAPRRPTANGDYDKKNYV
As to the kind of experiment: MST.

Our source for the Kd values is article doi:10.1101/2024.04.29.591687 (bioRxiv, 2024).

In general, Kd refers to a measure of binding affinity in units of concentration. Read a low Kd as a tighter complex.

In the case of ESVLALNAEVQAAR [f1-C5C2], binding was put at a Kd of 68.3 µM.
